Results published in patent US20090208486A1.

Molecular target: T1, mouse CXCR3 (mouse) (UniProt O88410)
T1 sequence (looked up): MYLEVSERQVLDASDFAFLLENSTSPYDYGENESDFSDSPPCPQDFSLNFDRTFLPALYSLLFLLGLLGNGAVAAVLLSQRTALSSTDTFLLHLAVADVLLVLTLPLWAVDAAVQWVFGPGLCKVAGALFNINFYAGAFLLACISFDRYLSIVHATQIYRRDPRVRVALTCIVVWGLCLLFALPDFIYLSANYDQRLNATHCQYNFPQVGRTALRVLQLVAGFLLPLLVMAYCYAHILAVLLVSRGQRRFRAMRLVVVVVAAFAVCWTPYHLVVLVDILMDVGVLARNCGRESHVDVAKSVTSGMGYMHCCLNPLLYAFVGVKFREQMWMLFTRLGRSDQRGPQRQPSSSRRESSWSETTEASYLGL
Assay: cell-based or functional assay

recombinant CXCL10 (Peprotech, Inc.) (ligand)
chemokine concentration at which chemotaxis/chemoinvasion responses of B16F10 cells were obtained: 50 to 100 ng/mL

B1: recombinant CXCL11 (Peprotech, Inc.) (ligand, UniProt O14625 22-94, looked up, species assumed)
C-X-C motif chemokine 11: FPMFKRGRCLCIGPGVKAVKVADIEKASIMYPSNNCDKIEVIITLKENKGQRCLNPKSKQARLIIKKVERKNF
chemokine concentration at which chemotaxis/chemoinvasion responses of B16F10 cells were obtained: 50 to 100 ng/mL

B2: recombinant CXCL9 (Peprotech, Inc.) (ligand, UniProt P18340 22-126, looked up, species assumed)
C-X-C motif chemokine 9: TLVIRNARCSCISTSRGTIHYKSLKDLKQFAPSPNCNKTEIIATLKNGDQTCLDPDSANVKKLMKEWEKKISQKKKQKRGKKHQKNMKNRKPKTPQSRRRSRKTT
chemokine concentration at which chemotaxis/chemoinvasion responses of B16F10 cells were obtained: 50 to 100 ng/mL
diffusely-stained B16F10 cell population 5 min after CXCL9 (100 ng/ml), phalloidin staining: 22.8%
increase in intracellular Ca2+ concentration after CXCL9 (300 ng/ml) in CXCR3 antisense-transfectant B16F10 clones (CXCR3 protein reduced to about 20-25%): 5%
increase in intracellular Ca2+ concentration of B16F10 cells after CXCL9 (300 ng/ml), Fluo-3 AM: 15 to 20%
proportion of actin filament polarized B16F10 cells 5 min after CXCL9 (100 ng/ml), phalloidin staining: 38.4%
